Here are results for 1 molecule from paper PMC12183613, “Identification of novel small molecule inhibitors of ETS transcription factors”.

This series concerns the target ETV6 full-length (UniProt P41212 1-452). Nature of the series: pull-down; fragment Fr18 (enhanced binding); Pull-down: 4 C, 30 min, 1 ug poly(dI/dC), 4 mM spermidine; wash in binding buffer 50 mM KCl, 10 mM HEPES pH 7.6, 5 mM MgCl2, 10 mM Tris pH 8, 0.05 mM EDTA, 0.1% Triton X-100, 20% glycerol. SPR: 25 mM HEPES pH 7.5, 100 mM NaCl, 1 mM EDTA, 1 mM beta-mercaptoethanol; NMR same buffer (296 K). As to conditions: protein: ivt; tags: FLAG; only one strand given.

ETV6 full-length, sequence (P41212 whole entry, the tested form may be a part): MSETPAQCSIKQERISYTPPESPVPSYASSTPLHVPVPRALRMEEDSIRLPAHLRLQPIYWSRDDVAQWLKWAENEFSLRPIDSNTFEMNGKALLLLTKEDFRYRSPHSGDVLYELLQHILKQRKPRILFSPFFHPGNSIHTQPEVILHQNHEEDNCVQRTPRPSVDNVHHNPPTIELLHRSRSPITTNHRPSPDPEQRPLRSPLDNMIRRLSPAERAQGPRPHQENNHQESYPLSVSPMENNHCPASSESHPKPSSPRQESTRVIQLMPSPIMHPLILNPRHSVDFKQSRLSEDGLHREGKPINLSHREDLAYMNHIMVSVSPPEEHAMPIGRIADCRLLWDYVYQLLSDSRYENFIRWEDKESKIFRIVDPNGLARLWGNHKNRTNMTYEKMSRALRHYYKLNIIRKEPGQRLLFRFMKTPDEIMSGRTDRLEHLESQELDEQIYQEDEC

B1: 3x consensus ETS oligonucleotide (biotinylated) (dsDNA)
DNA 1: ACCGGAAGTACCGGAAGTACCGGAAGT
DNA 2: ACTTCCGGTACTTCCGGTACTTCCGGT
Consider B1, for which the binding result is “binds”.
